Entries after “also recorded” stand apart in the source; their conditions may differ.
Key:
Type in all cases: cell-based, human
IL-8 [1] = experiment: IL-8 expression in PBECs (ELISA, RT-PCR); conditions: ML-1 10 and 100 ng/ml, 24 and 48 hours, ELISA
Experimental: (§1) FIG. 5. Analysis of IL-6 (FIG. 5A) and IL-8 (FIG. 5B) expression in primary bronchial epithelial cells (PBECs) and human umbilical vein endothelial cells (HUVECs) stimulated by ML-1. The IL-6 and IL-8 protein release in the supernatant was determined by ELISA as described in Example 8. The results were expressed as mean+SD (n=6). *p<0.05 was considered significant vs control.
(§2) FIG. 7A-7D. Effect of PD98059 on IL-6 (FIG. 7A) and IL-8 (FIG. 7B) protein production in PBECs and HUVECs. The cells were preincubated with varying concentrations of PD98059, SB202190, or DMSO vehicle control for 1 hour, followed by stimulation with ML-1 (100 ng/ml) for 24 hours. The results are expressed as the mean+SD (n=6). *P<0.05 when compared to cultures without the addition of PD98059. FIGS. 7C and 7D. Semi-quantitative analysis of gene expression for IL-6 (FIG. 7C) and IL-8 (FIG. 7D) by RT-PCR. The cells were preincubated as described above and treated with ML-1 for 4 hours. RT-PCR was performed as described in Example 8. The results shown are representative of three separate experiments.
Primary bronchial epithelial cells (PBECs) were purchased from Clonetics (San Diego, Calif.) and cultured in bronchial epithelial basal medium (Clonetics) containing 0.5 ng/ml human recombinant epidermal growth factor (EGF), 52 mg/ml bovine pituitary extract, 0.1 mg/ml retinoic acid, 0.5 mg/ml hydrocortisone, 5 mg/ml insulin, 10 mg/ml transferrin, 0.5 mg/ml epinephrine, 6.5 ng/ml triiodothyronine, […] gentamicin, and 50 pg/ml amphotericin-B (Clonetics). […]
(§3) The amplification reaction was performed for 23 cycles with denaturation at 94° C. for 45 seconds, annealing at 56° C. for 45 seconds, and extension at 72° C. for 45 seconds. PCR products were detected by ethidium bromide staining and normalized by the intensity of an amplified housekeeping gene, G3PDH (see above). […] IL-6 and IL-8 protein levels in the collected supernatants were determined with a commercially available ELISA kit (Biosource, Camarillo, Calif.) according to the manufacturer's instructions.

p38 = experiment: Western blotting of p38 activation in ML-1-stimulated cells; conditions: any time point, FIG. 6A (PBECs)
Experimental: (§4) FIGS. 6A-6D. Kinetic activation of ERK1/2 by ML-1 in PBECs (FIG. 6A) and HUVECs (FIG. 6B). The cells were incubated with or without ML-1 (100 ng/ml) for different time points as indicated. Western blotting analysis was performed by using antibodies against different MAP kinases as described in Example 8. FIGS. 6C and 6D. Effect of PD98059 on ML-1-induced phosphorylation of ERK1/2 in PBECs (FIG. 6C) and HUVECs (FIG. 6D). The cells were preincubated with PD98059 ([…]) or DMSO vehicle control for 1 hour, followed by stimulation of PBECs and HUVECs with medium or ML-1 for 20 minutes or 10 minutes, respectively. The results shown are representative of three separate experiments.
For analysis of activation of MAP kinases, PBECs were treated with IL-17 (100 ng/ml) for various time periods, with or without the MEK 1/2 inhibitor PD98059 ([…]; Calbiochem, La Jolla, Calif.) (15), the p38 inhibitor SB202190 (0.5-10 μM; ref. 16), or a vehicle control, DMSO (Me2SO) for 1 hour. […] Following the treatment, the cells were washed with ice-cold PBS. […]
(§5) Immunoreactive proteins were detected using antibodies against various kinases and phosphorylated kinases. […] Western blotting detection reagents (Amersham) and Hyper ECL luminescence detection film (Amersham) were used. […]

ERK1/2 [2] = experiment: Western blotting of ERK1/2 phosphorylation in HUVECs; conditions: ML-1 100 ng/ml
Experimental: as §4
(§6) For analysis of activation of MAP kinases, PBECs were treated with IL-17 (100 ng/ml) for various time periods, with or without the MEK 1/2 inhibitor PD98059 ([…]; Calbiochem, La Jolla, Calif.) (15), the p38 inhibitor SB202190 (0.5-10 μM; ref. 16), or a vehicle control, DMSO (Me2SO) for 1 hour. […] Following the treatment, the cells were washed with ice-cold PBS. Cell pellets were immediately lysed in cold lysis buffer [20 mM Tris (pH 7.4), 4 mM EDTA, 2 mM EGTA, 1 mM PMSF, […] aprotinin, 200 mg/ml leupeptin, 50 mM NaF, 5 mM NaRP2O7, 1 mM Na3VO4, and 1% Nonidet P40; all purchased from Sigma]. Extracts (1×10^6 cell equivalents/lane) were suspended with an equal volume of 2× loading buffer [0.1 M Tris-HCl (pH 6.8)], 4% SDS, 0.005% bromophenol blue, and 20% glycerol) containing 2-ME (0.7 M) and subjected to 4-20% Tris-glycine gel electrophoresis (NOVEX, San Diego, Calif.). Gels were then transferred to PVDF membranes (BIO-RAD, Hercules, Calif.) with a Trans Blot apparatus (NOVEX). The membranes were immersed overnight in This-buffered saline/Tween 20 containing 5% nonfat dry skim milk (Carnation, Los Angeles, Calif.).
as §5

ERK1/2 [3] = experiment: Western blotting of ERK1/2 phosphorylation in PBECs; conditions: ML-1 100 ng/ml
Experimental: as §4, §6, §5

IL-8 [4] = experiment: IL-8 expression in HUVECs (ELISA, RT-PCR); conditions: ML-1 10 and 100 ng/ml, 24 and 48 hours, ELISA
Experimental: as §1, §2
Human umbilical vein endothelial cells (HUVECs) were obtained from Clonetics and cultured in endothelial cell growth media (EGM; Clonetics) containing 12 μg/ml bovine brain extract, 10 ng/ml EGF, 1 μg/ml hydrocortisone, 50 μg/ml gentimicin, 50 ng/ml amphotericin B, and 5% FBS amphotericin-B (Clonetics).
PBECs and HUVECs were treated with ML-1 100 ng/ml of ML-1 for various time points. Total RNA was extracted using RNeasy (Qiagen) from 1×10^6 cells 4 hours after stimulation or exchange of media. […]
as §3

B1: ML-1: new member of the IL-17 cytokine family, SEQ ID NO:2; His-tagged recombinant protein expressed in COS-7 cells and affinity purified (protein, listed as Homo sapiens)
chain: MKLDIGIINENQRVSMSRNIESRSTSPWNYTVTWDPNRYPSEVVQAQCRNLGCINAQGKEDISMNSVPIQQETLVVRRKHQGCSVSFQLEKVLVTVGCTCVTPVIHHVQ
modifications: His tag
IL-8 production (IL-8 [1]): time-dependent increase; also recorded: significantly induced | activation of p38 kinase (p38): No activation | time of maximum phosphorylation of ERK1/2 (ERK1/2 [2]): 10 min | time of return of ERK1/2 phosphorylation to baseline levels (ERK1/2 [2]): ≤ 60 min | time of maximum phosphorylation of ERK1/2 (ERK1/2 [3]): 20 min | time of return of ERK1/2 phosphorylation to baseline levels (ERK1/2 [3]): ≤ 60 min | IL-8 production (IL-8 [4]): time-dependent increase; also recorded: significantly induced

— patent US20060073572A1, “Cytokine structurally related to IL-17” (The Johns Hopkins University, priority 2001, published 2006)
